Source: paper PMC11294563
pKd: −log10 of the molar value.

Key:
[1] = molecular target: PAR-2 RING domain (residues 40-120) L109R (C. elegans); test: SEC-MALS; input sample 0.75 mg/ml, wild type compared with L109R; Superdex 75 Increase 10/300 GL, 20 mM Tris-HCl, 150 mM NaCl, 0.5 mM TCEP pH 7.5
[2] = molecular target: PAR-2 RING domain (PAR-2 residues 40-120, core RING domain and flanking dimerization helices) (C. elegans); test: as above
[3] = molecular target: PAR-2 RING domain (PAR-2 residues 40-120, core RING domain and flanking dimerization helices) (C. elegans); test: SEC-MALS; input samples from 10 to 0.5 mg/ml, 100 µl on Superdex 75 Increase 10/300 GL, 20 mM Tris-HCl, 150 mM NaCl, 0.5 mM TCEP pH 7.5, 1.0 ml/min; weight-averaged molecular weight fitted to a monomer-dimer model
[4] = molecular target: PAR-2 RING domain (PAR-2 residues 40-120, core RING domain and flanking dimerization helices) (C. elegans); test: AUC; sedimentation equilibrium, interference data, 20,000 and 24,000 rpm, three PAR-2 RING concentrations, 20 mM Tris-HCl, 150 mM NaCl, 0.5 mM TCEP; global fit to a monomer-dimer model (SEDPHAT); dimer to monomers
[5] = molecular target: mNG::PAR-2(L109R) (endogenously tagged PAR-2 with L109R) (C. elegans)

Substance: PAR-2 RING domain (residues 40-120) L109R (domain or fragment)
- dimer fraction at 0.75 mg/ml [1]: 5%
- fold reduction in dimer affinity against wild type [1]: 10 fold

Substance: PAR-2 RING domain (PAR-2 residues 40-120, core RING domain and flanking dimerization helices) (domain or fragment)
- dimer fraction at 0.75 mg/ml [2]: 35%
- stoichiometry N [3]: 2
- pKd [4]: 6.45

Substance: mNG::PAR-2(L109R) (endogenously tagged PAR-2 with L109R) (natural protein)
- fold reduction in dimerization affinity against PAR-2(WT), from the simultaneous fit of the model to membrane and cytoplasmic concentrations in embryos (common KD^mem) [5]: 6 fold
